Measurements from PMC5915679 (Molecular cell, 2017).
No end group written: not given here. FAM = fluorescein amidite

Legend:
human Argonaute-1 [1] = target: T1, human Argonaute-1 (human, UniProt Q9UL18 1-857); experiment: fluorescence polarisation
human Argonaute-1 [2] = target: T1, human Argonaute-1; experiment: ITC

binding result (human Argonaute-1 [1])	Kd (human Argonaute-1 [2]) [nM]	Binder
binds		{FAM}-TVDNGTSAWGKPIDSGPSWGEP (peptide, UniProt Q8NDV7-2 820-841, looked up) [N-terminal fluorescein amidite (FAM) labeled hGW182 hook fragment]
	383	TVDNGTSAWGKPIDSGPSWGEP (peptide, UniProt Q8NDV7-2 820-841, looked up) [hGW182 (TNRC6A) hook motif]
